Data taken from patent publication CN101627111A (CENTOCOR INC, dated 2010).

Target: human tissue factor on HCT 116 human colon carcinoma cells (human, UniProt P13726 33-295)
Assay: cell-based or functional assay

B1: CNTO 860 produced in YB2/0-derived host cell line C1083B (antibody, human IgG1, kappa, V domains shown)
VH: QVQLVESGGGVVQPGRSLRLSCKASGFNIKDYYMHWVRQAPGKGLEWIGLIDPENGNTIYDPKFQGRFTISADNSKNTLFLQMDSLRPEDTAVYYCARDNSYYFDYWGQGTPVTVSS
VL: DIQMTQSPSSLSASVGDRVTITCKASQDIRKYLNWYQQKPGKAPKLLIYYATSLADGVPSRFSGSGSGTDYTFTISSLQPEDIATYYCLQHGESPYTFGQGTKLEITR
modifications: Fc N-glycan about 40% fucosylated
- ADCC potency (EC50 and maximal lysis) against C463-derived CNTO 860: 20 to 60 倍
